Laboratory results reported in paper PMC3508667 (Biochemistry, 2012).

B1: (Phe94)-scFv (scFv, V domains shown)
VH: DIQLQESGPSLVKPSQTLSLTCSVTGDSITSDYWSWIRKFPGNRLEYMGYVSYSGSTYYNPSLKSRISITRDTSKNQYYLDLNSVTTEDTATYYCANWDGDYWGQGTLVTVSA
VL: DIVLTQSPATLSVTPGNSVSLSCRASQSIGNNLHWYQQKSHESPRLLIKYASQSISGIPSRFSGSGSGTDFTLSINSVETEDFGMYFCQQSNSFPYTFGGGTKLEIT
B2: ^5FW(Phe34)-scFv (scFv, V domains shown)
VH: DIQLQESGPSLVKPSQTLSLTCSVTGDSITSDYFSWIRKFPGNRLEYMGYVSYSGSTYYNPSLKSRISITRDTSKNQYYLDLNSVTTEDTATYYCANWDGDYWGQGTLVTVSA
VL: DIVLTQSPATLSVTPGNSVSLSCRASQSIGNNLHWYQQKSHESPRLLIKYASQSISGIPSRFSGSGSGTDFTLSINSVETEDFGMYFCQQSNSWPYTFGGGTKLEIT
B3: ^5FW(Phe36)-scFv (scFv, V domains shown)
VH: DIQLQESGPSLVKPSQTLSLTCSVTGDSITSDYWSFIRKFPGNRLEYMGYVSYSGSTYYNPSLKSRISITRDTSKNQYYLDLNSVTTEDTATYYCANWDGDYWGQGTLVTVSA
VL: DIVLTQSPATLSVTPGNSVSLSCRASQSIGNNLHWYQQKSHESPRLLIKYASQSISGIPSRFSGSGSGTDFTLSINSVETEDFGMYFCQQSNSWPYTFGGGTKLEIT
B4: (Phe36)-scFv (scFv, V domains shown)
VH: DIQLQESGPSLVKPSQTLSLTCSVTGDSITSDYWSFIRKFPGNRLEYMGYVSYSGSTYYNPSLKSRISITRDTSKNQYYLDLNSVTTEDTATYYCANWDGDYWGQGTLVTVSA
VL: DIVLTQSPATLSVTPGNSVSLSCRASQSIGNNLHWYQQKSHESPRLLIKYASQSISGIPSRFSGSGSGTDFTLSINSVETEDFGMYFCQQSNSWPYTFGGGTKLEIT
B5: ^5FW(Phe94)-scFv (scFv, V domains shown)
VH: DIQLQESGPSLVKPSQTLSLTCSVTGDSITSDYWSWIRKFPGNRLEYMGYVSYSGSTYYNPSLKSRISITRDTSKNQYYLDLNSVTTEDTATYYCANWDGDYWGQGTLVTVSA
VL: DIVLTQSPATLSVTPGNSVSLSCRASQSIGNNLHWYQQKSHESPRLLIKYASQSISGIPSRFSGSGSGTDFTLSINSVETEDFGMYFCQQSNSFPYTFGGGTKLEIT
B6: (Phe34)-scFv (scFv, V domains shown)
VH: DIQLQESGPSLVKPSQTLSLTCSVTGDSITSDYFSWIRKFPGNRLEYMGYVSYSGSTYYNPSLKSRISITRDTSKNQYYLDLNSVTTEDTATYYCANWDGDYWGQGTLVTVSA
VL: DIVLTQSPATLSVTPGNSVSLSCRASQSIGNNLHWYQQKSHESPRLLIKYASQSISGIPSRFSGSGSGTDFTLSINSVETEDFGMYFCQQSNSWPYTFGGGTKLEIT

biological target: hen egg white lysozyme (Gallus gallus (hen egg white), UniProt P00698); assay: SPR
Sequence (P00698 19-147): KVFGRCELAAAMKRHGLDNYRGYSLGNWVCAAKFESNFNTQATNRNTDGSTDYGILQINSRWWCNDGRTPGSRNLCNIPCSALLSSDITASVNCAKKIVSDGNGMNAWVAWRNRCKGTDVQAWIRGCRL

Which Kd does the source give for B1 here?
The Kd was 0.272 nM.

For B2, which Kd is on record?
The Kd was 1.22 nM.

B3 was tested. Which Kd did it give?
Its Kd is 4.22 nM.

How did the Kd turn out when B4 was run?
The Kd was 0.559 nM.

B5 was tested. Which Kd did it give?
The Kd was 1.99 nM.

How did the Kd turn out when B6 was run?
Its Kd is 0.266 nM.

biological target: hen egg white lysozyme (hen) (UniProt P00698); assay: SPR
Sequence (P00698 19-147): as above

How did the Kd turn out when “^5FW-scFv (HyHEL10 scFv, all Trp residues substituted with 5-fluorotryptophan)” was run?
Its Kd is 4.03 nM.
